This is an account of results in patent publication US20260092121A1 (TALEM THERAPEUTICS, published 2026).

Numbering of substitutions follows the chain as printed. Names may count otherwise.

B1: anti-TrkB clone 2H05 (antibody, V domains shown)
VH: EVQLVESGAEVKKPGESLRISCKGSGYSFTNNWINWVRQMPGKGLEWMGRIDPDDSYTNYSPSFQGHVIFSADKSSNTVYLQWSSLEASDTAMYYCARRAQGGGGYDYWGQGTLVTVSS
VL: QSVLTQPSSVSGAPGQRVTISCTGSSSNIGAGYGVHWYQQLPGTAPKLLIYDDINRPSGVPDRFSGSKSGTSASLAITGLRAEDEADYYCQSYDTSRGGLYVFGSGTKLTVL
notes: full-length IgG
B2: anti-TrkB clone 3D06 (antibody, V domains shown)
VH: EVQLVQSGAEVKKPGESLKISCQGSGYTFTNYWIAWVRQMPGKGLEWMGIIYPGDSDTRYSPSFQGQVTISADKSISTAYLQWSSLKASDTAMYYCAIGYDYGAFDIWGQGTMVTVSS
VL: QPVLTQPPSASGTPGQRVSISCSGSNSNIGSNSVYWYQQLPGTAPKLLIYRNNQRPSGVPDRFSGSKSGTSASLAISGLRSEDEADYYCAAWDDSLSGYVFGTGTQLTVL
notes: full-length IgG
B3: anti-TrkB clone 4D01 (antibody, V domains shown)
VH: EVQLVQSGAEVKKPGESLKISCKGSRYSFTSYWIGWVRQMPGKGLEWMGIIYPGDSDTRYSPSFQGQVTISADKSISTAYLQWSSLKASDTAMYYCARLKDGAFDIWGQGTMVTVSS
VL: QAVLTQPPSASGTPGQRVTISCSGSSSNIEGNYVHWYQQLPGAAPKVLIYRNNQRPSGVPDRFSGSKSGTSASLAISGLRSEDETDYFCAAWDDSLNGYVFGAGTKVTVL
notes: full-length IgG
B4: KiH.3C12_TrkB × 8A05_CD3 (bispecific antibody)
scFv: QVQLVQSGAEVKKPGESLKISCKGSGYSFTSYWIGWVRQMPGKGLEWMGIIYPGDSDTRYSPSFQGQVTISADKSISTAYLQWSSLKASDTAMYYCTRSSFNDHWGQGTLVTVSSSSGGGGSGGGGSGGSALQPVLTQPPSVSVSPGQTASITCSGDKLGNKFVSWFQQKPGQSPVLVIYQDTKRPSGIPERFSGSNSGSTATLTITGTQAMDDADYYCQAWNTNTALFGGGTKLTVL
VH: QVQLQQSGGGLVQSGGSLRLSCAASGFSFGSSAMSWVRQAPGRGLEWVSGISHSGSTTYYADSVKGRFTISRDNSKNTLYLQMNSLRVEDTAVYYCAKIGAYGYYFHYWGQGTLVTVSS
VL: NFMLTQPHSVSESPGKTVTISCTRSGGSIASNYVQWYQQRPGSSPTTVIYDDNQRPSGVPDRFSGSIDSSSNSASLTISGLKTEDEADYYCQSSDNINHVIFGGGTKLTVL
notes: scFv-knob-Fc (IgG1 T366W/S354C) + Fab-hole-Fc (T366S/L368A/Y407V/Y349C); also called 3C12-8A05; 3C12/8A05
B5: KiH.3C12_TrkB × 3G07_CD3 (bispecific antibody)
scFv: B4 scFv
VH: B4 VH with S14P
VL: NFMLTQPHSLSESPGKTVTISCTRSSGSIASKYVQWYQQRPGSAPTTVIYDDKQRPSGVPDRFSGSFDSSSNSASLTISGLKTEDEADYYCQSFDSTNQAVVFGGGTKLTVL
notes: scFv-knob-Fc (IgG1 T366W/S354C) + Fab-hole-Fc (T366S/L368A/Y407V/Y349C); also called 3C12-3G07; 3C12/3G07
B6: anti-TrkB chicken-derived clone B11 (antibody, V domains shown)
VH: AVTLDESGGGLQTPGGALSLVCKASGFTFSSFNMFWVRQAPGKGLEFVAHIKRNGGETDYGAAVKGRATISRDDGQSTVRLQLNNLRAEDTATYFCAKDAGDNCRWNYCTTNIDAWGHGTEVIVSS
VL: QAALTQPASVSANPGETVKITCSGGGRWYGTYYYGWYQQKSPGSAPVTVIYSNDKRPSDIPSRFSGSASGSTATLTITGVQADDEAVYYCGSWDSTDTTAFGAGTTLTVL
notes: chimeric chicken-human mAb
B7: anti-TrkB chicken-derived clone F5 (antibody, V domains shown)
VH: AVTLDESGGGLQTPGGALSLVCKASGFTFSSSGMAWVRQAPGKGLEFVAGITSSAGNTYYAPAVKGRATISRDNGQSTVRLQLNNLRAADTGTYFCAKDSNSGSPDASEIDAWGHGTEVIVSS
VL: QAALTQPASVSANPGETVKITCSGYKSYYGWYQQKSPGSAPVTVIYDNTNRPSNIPSRFSGSTSGSTATLTITGVQADDEAVYYCGNADHSYVGVFGAGTTLTVL
notes: chimeric chicken-human mAb
B8: anti-TrkB chicken-derived clone B1.2 (antibody, V domains shown)
VH: AVTLDESGGGLQTPGGGLSLVCKASGFTFSNHQMAWVRQAPGKGLEYVGLINAAGSWTYYGTAVKGRATISRDNGQSTVRLQLNNLRAEDTATYYCAKDVYGYCSTCGATIDTWGHGTEVIVSS
VL: QAALTQPSSVSANPGETVKITCSGPTYDYGWFQQKSPGSAPVTVIYYNDNRPSDIPSRFSGSKSGSTATLTITGVQAEDEAVYYCGTYEDNNGASFGAGTTLTVL
notes: chimeric chicken-human mAb
B9: anti-TrkB chicken-derived clone D5 (antibody, V domains shown)
VH: AVTLDESGGGLQTPGGPLSLVCEGSGFTFSSYGMAWVRQAPGKRLEWVASISSTGINAYYGAAVKGRATISRDNGQSTVRLQLNNLRAEDTGIYYCSKCAYSGSCSTSIDAWGHGTEVIVSS
VL: QAALTQPASVSANLGGTVEITCSGGSSGYGYGWYQQKSPGSAPVTVIYNNNNRPSDIPSRFSGSLSDSTHTLTITGVRAEDEAVYFCGAWESSATDIFGAGTTLTVL
notes: chimeric chicken-human mAb
B10: anti-TrkB chicken-derived clone F1.3 (antibody, V domains shown)
VH: AVTLDESGGGLQTPGGALSLVCKASGFTFSSFPMVWVRQAPGKGLEFVAGIVRTSTPKYGAAVTGRATISRDNGQSTVRLQLNNLRAEDTGTYFCAKSATICGNCPEDIDAWGHGTEVIVSS
VL: QAALTQPASVSANPGETVKITCSGGSSDYGWFQQKSPGSAPVTVIYYSDKRPSDIPSRFSGSTSGSTNTLTITGVQVEDEAVYFCGSGDNSYVGFGAGTTLTVL
notes: chimeric chicken-human mAb
B11: anti-TrkB chicken-derived clone A12 (antibody, V domains shown)
VH: B10 VH
VL: QAALTQPASVSANPGETVKITCSGGSSDYGWFQQKSPGSAPVTVIYYSDKRPSDIPSRFSGSASGSMGALIITGVQAEDEAVYFCGSRDSSNVAIFGAGTTLTVL
notes: chimeric chicken-human mAb
B12: anti-TrkB chicken-derived clone B5 (antibody, V domains shown)
VH: B10 VH
VL: B11 VL with A63T
notes: chimeric chicken-human mAb
B13: anti-TrkB chicken-derived clone E2 (antibody, V domains shown)
VH: AVTLDESGGGLQTPGGALSLVCKASGFDFSSNAMGWVRQAPGKGLEFIASITTDGSYTTYGAAVKGRATISRDDGQSTLRLQLNNLRAEDTATYYCAKDSSIHWNGYDIDAWGHGTEVIVSS
VL: QAALTQPSSVSANPGETVKITCSGSINNYGWYQQKSPGSAPVTVIYQNDKRPSDIPSRFSGSKSGSTGTLTITGVQAEDEAVYFCGSEDSRTYLGIFGAGTTLTVL
notes: chimeric chicken-human mAb
B14: anti-TrkB chicken-derived clone B4.2 (antibody, V domains shown)
VH: AVTLDESGGGLQTPGGGLSLVCKASGFTFSSYTMQWVRQAPGKGLEWVAGICNDGTTTNYGSAVKGRATISRDNGQSTLRLQLNNLRAEDTGIYFCTRGVDICWNSGNNIDAWGHGTEVIVSS
VL: QAALTQPASVSANPGETVKITCSGGGSYYGSYYYGWYQQKSPGSAPVTVIYNNDKRPSDIPSRFSGSLSGSTNTLTITGVQVEDESVYFCGSKDSSGAGIYGAGTTLTVL
notes: chimeric chicken-human mAb

One test deals with T1, human TrkB-ECD-GST (human, UniProt Q16620 32-430).
T1 construct: in-house fusion, HEK293; also called hTrkB-ECD-GST; human TrkB-GST; not shown: glutathione S-transferase (GST) fusion part
As to the kind of experiment: ELISA.
Turning to B1, the binding result is “no binding (tested: up to 10 µg/mL)”.

In the case of B2, the binding result is reported as “no binding (tested: up to 10 µg/mL)”.

With B3, the binding result was “no binding (tested: up to 10 µg/mL)”.

Another test addresses T2, mouse TrkB-ECD-GST (mouse, UniProt P15209 32-429).
T2 construct: extracellular domain; in-house fusion, HEK293; also called mTrkB-ECD-GST; mTrkB (ELISA); not shown: glutathione S-transferase (GST) fusion part
The test can be described thus: ELISA. (In general: ELISA stands for enzyme-linked immunosorbent assay.)
In the case of B1, the binding result was “no binding (tested: up to 10 µg/mL)”.

For the molecule B2, the binding result is reported as “no binding (tested: up to 10 µg/mL)”.

With B3, the binding result is given as “no binding (tested: up to 10 µg/mL)”.

In a further test the target is T3, human TrkB-His (human, UniProt Q16620 32-430).
T3 construct: in-house fusion of the TrkB ECD with poly-His, HEK293; also called huTrkB-His; hTrkB-His; not shown: poly-His tag
The test can be described thus: ELISA.
For B4, the binding result is “binds”.

On to B5, for which the binding result is given as “binds”.

A further test addresses TrkB in PathHunter eXpress TrkB Functional Assay cells (modified U2OS). As to the kind of experiment: cell-based or functional assay.
B6: the “TrkB activation (EC50)” value was 0.00086 ng/mL.

For the molecule B7, the “TrkB activation (EC50)” value was determined as 46 ng/mL.

As for B8, the “TrkB activation (EC50)” value was 7.5 ng/mL.

Consider B9, for which the “TrkB activation (EC50)” value was 180 ng/mL.

For the molecule B10, the “TrkB activation (EC50)” value is 380 ng/mL.

As to B11, the “TrkB activation (EC50)” value came to 4.5 ng/mL.

Consider B12, for which the “TrkB activation (EC50)” value is 8.9 ng/mL.

With B13, the “TrkB activation (EC50)” value came to 170 ng/mL.

A further test addresses T3, human TrkB-His. As to the kind of experiment: BLI off-rate, mAb immobilized, 300 nM TrkB-His.
Broadly, the koff is a measure of how fast the partners let go of each other. Read a low koff as slow dissociation. As to B6, the off-rate (koff) came out at 0.00434 s⁻¹.

B14 displayed a koff of 0.00136 s⁻¹.

On to B7, for which the koff turned out to be 0.00163 s⁻¹. The koff values of the last two molecules are within 1.5-fold of each other.

For the molecule B8, the koff worked out at 0.000483 s⁻¹.

Turning to B9, the koff was 0.000219 s⁻¹.

B10 displayed a koff of 0.0156 s⁻¹.

B11: the koff turned out to be 0.00176 s⁻¹.

B12: the off-rate constant (koff) was 0.00114 s⁻¹.

Molecule B13 displayed a koff of 0.000575 s⁻¹.
